Molecular target: T1, His-tagged GATA1 (UniProt P15976 1-413)
T1 construct: GATA1; also called purified His-tagged GATA1 protein; source: His fusion from pET-28a, expressed and purified according to the manufacturers' instructions (Qiagen)
Test: pull-down; GST pull-down: purified His fusion protein incubated with GST fusion protein bound to GST beads for 4 h at 4°C; immunoblot
Conditions: both partners purified

T1 sequence (P15976 whole entry, the tested form may be a part): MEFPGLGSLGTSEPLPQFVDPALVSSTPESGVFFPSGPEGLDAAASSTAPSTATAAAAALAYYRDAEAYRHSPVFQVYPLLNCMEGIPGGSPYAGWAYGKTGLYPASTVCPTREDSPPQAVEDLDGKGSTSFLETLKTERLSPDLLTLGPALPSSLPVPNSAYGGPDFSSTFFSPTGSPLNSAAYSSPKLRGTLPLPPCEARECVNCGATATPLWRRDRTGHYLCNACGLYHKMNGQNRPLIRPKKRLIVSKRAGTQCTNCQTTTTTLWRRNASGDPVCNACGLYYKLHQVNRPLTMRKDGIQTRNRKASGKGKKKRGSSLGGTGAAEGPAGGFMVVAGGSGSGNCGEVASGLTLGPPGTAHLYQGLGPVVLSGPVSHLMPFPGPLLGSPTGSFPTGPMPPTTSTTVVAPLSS

binding result: binds
B1: GST-SET7 (enzyme, UniProt Q8WTS6 1-366, looked up)
chain: MDSDDEMVEEAVEGHLDDDGLPHGFCTVTYSSTDRFEGNFVHGEKNGRGKFFFFDGSTLEGYYVDDALQGQGVYTYEDGGVLQGTYVDGELNGPAQEYDTDGRLIFKGQYKDNIRHGVCWIYYPDGGSLVGEVNEDGEMTGEKIAYVYPDERTALYGKFIDGEMIEGKLATLMSTEEGRPHFELMPGNSVYHFDKSTSSCISTNALLPDPYESERVYVAESLISSAGEGLFSKVAVGPNTVMSFYNGVRITHQEVDSRDWALNGNTLSLDEETVIDVPEPYNHVSKYCASLGHKANHSFTPNCIYDMFVHPRFGPIKCIRTLRAVEADEELTVAYGYDHSPPGKSGPEAPEWYQVELKAFQATQQK
notes: SET7 (SETD7); also called purified GST-SET7; source: GST fusion from pGEX-KG, expressed and purified according to the manufacturers' instructions (Amersham Pharmacia)
